The target of this assay is T1, HveA(200t) (UniProt Q92956 39-200, limits assumed).
T1 construct: Immobilized on microtiter wells in all ELISAs; also called soluble form of HveA; HVEM; not shown: C-terminal histidine tag
T1 sequence (looked up): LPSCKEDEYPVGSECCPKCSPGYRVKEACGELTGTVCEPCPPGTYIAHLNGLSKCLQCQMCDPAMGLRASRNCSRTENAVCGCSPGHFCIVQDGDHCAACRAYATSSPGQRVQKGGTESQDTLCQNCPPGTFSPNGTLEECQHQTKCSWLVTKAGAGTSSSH
Kind of assay: inferred from competition ELISA on immobilized HveA.

This is an account of results in patent publication US20020119165A1 (University of Pennsylvania, published 2002).

Ends that are not written are not given here.

B1: BP-2 (3, 9 Ala) (peptide)
peptide: GSADGFRVAYMH
modifications: not fully specified (C-terminus)
notes: Linear analog of BP-2 in which the two cysteine residues are replaced by alanine; also called linear form of BP-2
In the case of B1, the binding result was “no binding”.
